One data set addresses thrombin (FIIa) (UniProt P00734;P00734 315-363;364-622). The data set can be described thus: filter binding.
In a further data set the target is FX (UniProt P00742;P00742 41-179;183-488). Briefly: filter binding.
Another data set deals with FXa (UniProt P00742;P00742 41-179;235-488). The data set can be described thus: filter binding.
A further data set deals with FVIII (UniProt P00451 20-2351). The data set can be described thus: filter binding.
For data set [1], the target named is T1, modified FV (B-domain-truncated factor V) (human, UniProt P12259 29-838+1520-2224, R737Q;R1573Q;internal_change). Briefly: filter binding.
The next data set addresses prothrombin (FII) (UniProt P00734 44-622). Briefly: filter binding.
In data set [2] the target is T2, FVa (activated factor V) (human, UniProt P12259;P12259 29-737;1574-2224). The data set can be described thus: filter binding.
The next data set concerns the target FVa heavy chain (UniProt P12259 29-737). Briefly: SPR. On the technique in general: In SPR one partner is held on a chip, and binding of the other changes the refractive index at the surface.
Data set [3] has as its target T1, modified FV (B-domain-truncated factor …). Briefly: SPR.
The target of data set [4] is T2, FVa (activated factor V). The data set can be described thus: SPR.
Another data set addresses FVa light chain (UniProt P12259 1574-2224). Briefly: SPR.
Data set [5] addresses T2, FVa (activated factor V). The data set can be described thus: filter binding. This is another data set of the same source.

Chain of FX (P00742 41-179, chain 1 of 2): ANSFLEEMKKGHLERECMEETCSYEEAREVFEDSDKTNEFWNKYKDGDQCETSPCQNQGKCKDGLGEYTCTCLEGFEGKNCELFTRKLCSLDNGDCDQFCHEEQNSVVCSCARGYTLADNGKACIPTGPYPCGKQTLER
Chain of FX (P00742 183-488, chain 2 of 2): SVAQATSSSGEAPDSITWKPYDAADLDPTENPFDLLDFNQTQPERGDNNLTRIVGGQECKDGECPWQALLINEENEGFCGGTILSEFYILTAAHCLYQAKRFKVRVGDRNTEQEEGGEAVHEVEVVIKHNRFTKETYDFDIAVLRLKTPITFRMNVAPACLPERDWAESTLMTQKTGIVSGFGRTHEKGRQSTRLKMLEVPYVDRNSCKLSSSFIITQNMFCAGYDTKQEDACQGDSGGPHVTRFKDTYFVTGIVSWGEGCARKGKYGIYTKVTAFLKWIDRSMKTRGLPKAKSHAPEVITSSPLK
Chain of FXa (P00742 41-179, chain 1 of 2): as the sequence (P00742 41-179, chain 1 of 2) above
Chain of FXa (P00742 235-488, chain 2 of 2): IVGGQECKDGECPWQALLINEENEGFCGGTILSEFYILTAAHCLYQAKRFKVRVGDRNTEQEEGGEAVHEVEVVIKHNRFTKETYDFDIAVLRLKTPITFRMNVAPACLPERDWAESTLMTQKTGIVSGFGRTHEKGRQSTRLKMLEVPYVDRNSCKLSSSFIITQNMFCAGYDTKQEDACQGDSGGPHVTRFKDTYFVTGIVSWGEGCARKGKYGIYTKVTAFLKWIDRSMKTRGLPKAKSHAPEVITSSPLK
Chain of FVIII (P00451 20-2351): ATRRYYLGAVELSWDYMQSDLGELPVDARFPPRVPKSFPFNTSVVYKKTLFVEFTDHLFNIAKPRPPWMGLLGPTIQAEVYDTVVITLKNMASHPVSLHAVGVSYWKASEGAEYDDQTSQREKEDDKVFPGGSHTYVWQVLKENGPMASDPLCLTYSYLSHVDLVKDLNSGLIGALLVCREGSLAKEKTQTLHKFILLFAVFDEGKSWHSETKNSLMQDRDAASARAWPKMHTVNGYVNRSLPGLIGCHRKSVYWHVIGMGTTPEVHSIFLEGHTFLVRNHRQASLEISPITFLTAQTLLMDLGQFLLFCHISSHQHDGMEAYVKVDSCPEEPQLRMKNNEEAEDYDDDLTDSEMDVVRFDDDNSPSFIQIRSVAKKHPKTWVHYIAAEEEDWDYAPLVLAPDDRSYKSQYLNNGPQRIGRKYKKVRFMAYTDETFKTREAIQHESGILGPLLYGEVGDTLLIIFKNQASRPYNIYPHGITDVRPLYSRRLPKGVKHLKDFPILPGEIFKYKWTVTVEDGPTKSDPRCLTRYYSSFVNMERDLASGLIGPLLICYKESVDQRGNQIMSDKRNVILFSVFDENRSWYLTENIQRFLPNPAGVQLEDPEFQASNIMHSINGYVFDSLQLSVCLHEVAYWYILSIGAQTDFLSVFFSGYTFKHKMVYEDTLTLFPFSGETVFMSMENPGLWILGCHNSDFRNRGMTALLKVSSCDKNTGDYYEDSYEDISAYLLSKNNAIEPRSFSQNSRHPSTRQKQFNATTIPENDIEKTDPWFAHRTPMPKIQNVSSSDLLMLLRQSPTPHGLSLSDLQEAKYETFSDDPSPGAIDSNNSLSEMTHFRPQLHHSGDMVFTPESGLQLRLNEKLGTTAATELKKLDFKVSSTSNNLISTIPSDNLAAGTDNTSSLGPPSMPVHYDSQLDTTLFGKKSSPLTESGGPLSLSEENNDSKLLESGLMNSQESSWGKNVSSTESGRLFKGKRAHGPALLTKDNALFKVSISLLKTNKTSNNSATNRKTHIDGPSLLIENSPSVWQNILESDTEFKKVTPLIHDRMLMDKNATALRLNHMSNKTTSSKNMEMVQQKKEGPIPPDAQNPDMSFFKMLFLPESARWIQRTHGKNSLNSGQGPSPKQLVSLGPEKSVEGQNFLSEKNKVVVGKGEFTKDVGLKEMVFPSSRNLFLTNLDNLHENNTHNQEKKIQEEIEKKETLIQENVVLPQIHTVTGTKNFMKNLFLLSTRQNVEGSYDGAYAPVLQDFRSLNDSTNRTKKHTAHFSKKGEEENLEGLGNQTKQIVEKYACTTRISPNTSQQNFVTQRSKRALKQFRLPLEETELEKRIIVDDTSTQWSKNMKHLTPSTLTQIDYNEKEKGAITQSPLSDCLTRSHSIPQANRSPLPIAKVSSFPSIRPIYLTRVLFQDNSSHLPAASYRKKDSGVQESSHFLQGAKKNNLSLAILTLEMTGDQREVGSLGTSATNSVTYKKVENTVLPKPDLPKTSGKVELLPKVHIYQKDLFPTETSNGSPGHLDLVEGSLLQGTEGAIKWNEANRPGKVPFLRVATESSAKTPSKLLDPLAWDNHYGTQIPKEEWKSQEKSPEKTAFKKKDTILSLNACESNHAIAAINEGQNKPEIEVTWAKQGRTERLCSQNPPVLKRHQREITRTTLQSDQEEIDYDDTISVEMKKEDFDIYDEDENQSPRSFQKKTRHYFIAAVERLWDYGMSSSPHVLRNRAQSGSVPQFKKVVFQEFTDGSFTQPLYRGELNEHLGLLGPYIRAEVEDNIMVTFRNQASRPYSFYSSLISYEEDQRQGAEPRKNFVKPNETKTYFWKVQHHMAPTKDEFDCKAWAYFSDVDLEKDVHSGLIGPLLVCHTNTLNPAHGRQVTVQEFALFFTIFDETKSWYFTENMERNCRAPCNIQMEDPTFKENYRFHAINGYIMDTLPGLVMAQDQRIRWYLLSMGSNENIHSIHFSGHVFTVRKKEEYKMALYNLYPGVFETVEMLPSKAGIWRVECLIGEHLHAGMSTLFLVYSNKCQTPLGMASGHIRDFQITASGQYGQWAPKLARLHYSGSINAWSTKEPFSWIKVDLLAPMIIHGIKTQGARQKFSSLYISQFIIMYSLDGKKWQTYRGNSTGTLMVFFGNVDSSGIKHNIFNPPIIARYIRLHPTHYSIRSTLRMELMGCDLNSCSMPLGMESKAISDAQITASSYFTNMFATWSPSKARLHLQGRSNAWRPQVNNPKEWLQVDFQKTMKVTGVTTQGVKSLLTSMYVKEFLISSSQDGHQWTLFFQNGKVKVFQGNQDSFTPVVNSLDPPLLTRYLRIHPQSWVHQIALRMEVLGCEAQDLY

B1: T18.3 (structured_RNA)
RNA: GGACUUGGAUAACCUCACCGCAAUGGCGGCUUGUCAGACGACUCGCUGAGGAUCCGAG
modifications: all C and U 2'-fluoro
Consider B1, for which the binding result with thrombin (FIIa), with FX, with FXa, with FVIII and with prothrombin (FII) was “no binding” throughout. The Kd (in general, the concentration at which binding is half-saturated) in data set [1] amounted to 28 nM; with FVa (activated factor V) [2], 0.99 nM.

B2: T18.3-Bio (structured_RNA)
RNA: GGACUUGGAUAACCUCACCGCAAUGGCGGCUUGUCAGACGACUCGCUGAGGAUCCGAG
modifications: all C and U 2'-fluoro
With B2, the equilibrium dissociation constant (Kd) with FVa heavy chain is 113 ± 43 nM; in data set [3], 11.4 ± 3 nM; with FVa (activated factor V) [4], 4.73 ± 0.69 nM; with FVa light chain it was 3.33 ± 0.69 nM.

B3: Mut1 (structured_RNA)
RNA: GGACUUGGAUAACCUCACCGCAAUGGCGGAGGGUCAGACGACUCGCUGAGGAUCCGAG
modifications: all C and U 2'-fluoro
On to B3, for which the figures for the Kd (in [1]; in the data set with FVa (activated factor V) [5]) were 410 ± 46 nM and 359 ± 323 nM, respectively.

(Values after paper PMC8808741.)
